# Reference: the nanobody polyreactivity screen of Harvey et al. (2022)
# Test: yeast display, Sf9 membrane polyspecificity reagent, FACS + sequencing; frameworks hold sequencing errors
# Outline: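 Nanobodies came from a synthetic yeast display library in Saccharomyces cerevisiae BJ5465, induced with galactose for 36–48 hours and stained for 1 hour at 4 °C with 10% biotinylated, detergent-solubilized Sf9 membrane reagent. Cells were enriched on streptavidin microbeads and then FACS-sorted, with low and high (top ~1%) gates set on anti-HA fluorescence for expression and streptavidin fluorescence for reagent binding. Each polyreactivity label reflects the gate a clone came from. Genes were amplified by colony PCR, sequenced by MiSeq 2 × 250 and filtered by CDR length.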
row,Sequence,polyreactivity (PSR sort gate)
1,QVQLVESGGGLVQAGGSLRLSCAASGFIFGIYAMGWYRQAPGKEREFVAAITGSAGSTYYADSVKGRFTISRDNAKNTVYLQMNSLKPEDTAVYYCAAVLRTHRYGGYNYWGQGSQVTVSS,low polyreactivity
2,QVQLVESGGGLVQAGGSLRLSCAASGFIFGLYAMGWYRQAPGKERELVAAISWSGGSTYYADSVKGRFTISRDNAKNTVYLQMNSLKPEDTAVYYCAKRGGYGYEYYYWGQGTQVTVSS,high polyreactivity
3,QVQLVESGGGLVQAGGSLRLSCAASGFIFGLYAMGWYRQAPGKERELVAAITWRGSTYYADSVKGRFTISRDNAKNTVYLQMNSLKPEDTAVYYCNDVRSAYILSNDYWGQGTQVTVSS,high polyreactivity
4,QVQLVESGGGLVQAGGSLRLSCAASGFIFGNYALGWYRQAPWKERELVAGISGTGGSTYYADSVKGRFTISRDNAKNTVYLQMNSLKPEDTAVYYCAARIFKRQSFDYWGQGTQVTVSS,high polyreactivity
5,QVQLVESGGGLVQAGGSLRLSCAASGFIFGPYTMGWYRQAPGKERELVAAINNSGSTYYADSVKGRFTISRDNAKNTVYLQMNSLKPEDTAVYYCAAEPIIFVRYDYWGQGTQVTVSS,low polyreactivity
6,QVQLVESGGGLVQAGGSLRLSCAASGFIFGRNAMGWYRQAPGKERELVAGISSSGVRTFYADSVKGRFTISRDNAKNTVYLQMNSLKPEDTAVYYCATRGRVYPTKYSLDEDYWGQGTQVTVSS,high polyreactivity
7,QVQLVESGGGLVQAGGSLRLSCAASGFIFGRYAMGWYRQAPGKEREFVAAITWRGGNTYYADSVKGRFTISRDNAKNTVYLQMNSLKPEDTAVYYCAKKTAGHPWGPIYDYWGQGTQVTVSS,high polyreactivity
8,QVQLVESGGGLVQAGGSLRLSCAASGFIFGSYAMGWSRQAPGKERELVDAITRGGGNTYYADSVKGRFTISRDNAKNTVYLQMNSLKPEDTAVYYCAAVWGKRGYYYWGQGTQVTVSS,high polyreactivity
9,QVQLVESGGGLVQAGGSLRLSCAASGFIFGSYAMGWYRQAPGKERELVAAITSGTTTYYADSVKGRFTISRDNAKNTVYLQMNSLKPEDTAVYYCAATLIYHYWQLFIISTMGYWGQGTQVTVSS,low polyreactivity
10,QVQLVESGGGLVQAGGSLRLSCAASGFIFGTYAMGWYRHAPGKERELVAAISVGGGSTYYADSVKGRFTISRDNAKNTVYLQMNSLKPEDTAVYYCAAVQLFQKHQITYVANEYWGQGTQVTVSS,low polyreactivity
11,QVQLVESGGGLVQAGGSLRLSCAASGFIFGTYAMGWYRQAPGKERELVAAISVGGGSTYYADSVKGRFTISRDKAKNTVYLQMNSLKPEDTADYYCAAVQLYQKHQITYVAHEYWGQGTQVTVSS,low polyreactivity
12,QVQLVESGGGLVQAGGSLRLSCAASGFIFGTYAMGWYRQAPGKERELVAAITGSGGDTYYADSVKGRFTISRDNAKNTVYLQMNSLKPEDTAVYYCAAVRPPTPSRRREDYWGQGTQVTVSS,low polyreactivity
13,QVQLVESGGGLVQAGGSLRLSCAASGFIFGTYVMGLYRTAPGKERELLAAISESGGRTYYADSVKGRFTISRDNAKNTVYIQMNSLIPEDTAVYYCAKVRHIRFHYYYGYQSYYYWGQGTQVTVSS,high polyreactivity
14,QVQLVESGGGLVQAGGSLRLSCAASGFIFGVNAMGWYRQAPGKERELVAAIRWRGGSTYYADSVKGRFTISRDNAKNTVYLQMNSLKPEDTAVYYCAAARFVGGSGYVRILYYWGQGTQVTVSS,high polyreactivity
15,QVQLVESGGGLVQAGGSLRLSCAASGFIFGVYAMGWYRQAPGKERELVAAISGSGGTTYYADSVKGRFTISRDNAKNTVYLQMISLKPEDTAVYYCNAAYRVRYIVNYDYWGQGTQVTVSS,low polyreactivity
16,QVQLVESGGGLVQAGGSLRLSCAASGFIFGVYAMGWYRQAPGKERELVASISVSGDDTYYADSVKGRFTISRDNAKNTVYLQMNSLKPEDTAVYYCAADYPGGIYYDDYLYDMDYWGQGTQVTVSS,low polyreactivity
17,QVQLVESGGGLVQAGGSLRLSCAASGFIFGVYDMGRYRQAPVKERDLVAAISIDDITNYADSVKGRFTISRDNAKNTVYLHLNSLKPEVTAVYYCAADGRTWWSNLEGEYWGQGTQVTVSS,low polyreactivity
18,QVQLVESGGGLVQAGGSLRLSCAASGFIFGWYAMGWYRQAPGKERELVAAINWSGTSTYYADSVKGRFTISRDNAKNTVYLQMNILKPEDTAVYYCAAYFQNLPTTGYDYWGQGTQVTVSS,low polyreactivity
19,QVQLVESGGGLVQAGGSLRLSCAASGFIFGWYTMGWYRQAPGKERELVASISRSGGSTYYAESVKARFTISRDNEKNSVYLQMNSQKPEDNPVYYCAKRSLVDAHGYWGQGTQVTVSS,high polyreactivity
20,QVQLVESGGGLVQAGGSLRLSCAASGFIFGYNAMGWYRQAPGKERELVAAMDWSGTSTYYADSVKGRFTISRDNAKNTVYLQMNSLKPEDTAVYYCAKVSRRGIVGYWGQGTQVTVSS,high polyreactivity
21,QVQLVESGGGLVQAGGSLRLSCAASGFIFGYYAMAWYRQAPGKERELVAAITSGTGTNYADSVKGRFTISRDNAKNTVYLQMNSLKPEDTAVYYCAAYYTWLSEFGYWGQGTQVTVSS,low polyreactivity

row,Sequence,polyreactivity (PSR sort gate)
1,QVQLVESGGGLVQAGGSLRLSCAASGFIFGYYAMGGYRQAPGKERELVATIRQTGGSTRYADSVKGRFTISRDNAKNTVYLQMNSLIPEDTAVYYCAAYKWPSWRTWPYDSWGQGPQVTVSS,high polyreactivity
2,QVQLVESGGGLVQAGGSLRLSCAASGFIFGYYAMGWYRQAPAKERELVAAINWSGGSTYYADSVKGRFTISRDNAKNTVYLQMNSLKPEDTAVYYCAARYPYRRGGQDSYYYWGQGTQVTVSS,high polyreactivity
3,QVQLVESGGGLVQAGGSLRLSCAASGFIFGYYAMGWYRQAPGKERELVAAINGSGGSTYYADSVKGRFTISRDNAKNTVYLQMNSLKPEDTAVYYCNADVVPQYYSWGQGTQVTVSS,low polyreactivity
4,QVQLVESGGGLVQAGGSLRLSCAASGFIFGYYAMGWYRQAPGKERELVAAISKSGTDTYYADSVKGRFTISRDNAKNTVYLQMNSLKPEDTAVYYCNALLRGYSYGYDYWGQGTQVTVSS,high polyreactivity
5,QVQLVESGGGLVQAGGSLRLSCAASGFIFGYYAMGWYRQAPGKERELVAAITSGTGTNYADSVKGRFTISRDNAKNTVYLQMNSLKPEDTAVYYCAAYYTWLSEFGYWGQGTQVTVSS,low polyreactivity
6,QVQLVESGGGLVQAGGSLRLSCAASGFIFGYYAMGWYRQAPGKERELVAAITSGTSTNYADSVKGRFTISRDNAKYTVYLQMNSLKPDDTAVYYCAADRWRRRFYYWGQGTQVTVSS,high polyreactivity
7,QVQLVESGGGLVQAGGSLRLSCAASGFIFHGYALGWYRQAPGKERELVAAITRRGGRTDYADSVKGRFTISRDNAKNTVYLQMNSLKPEDTAVYYCAKRYTATEWHGERDYWGQGTQVTVSS,high polyreactivity
8,QVQLVESGGGLVQAGGSLRLSCAASGFIFHPNTMGWYRPAPGKERELVAGISYSGGITYTDSVKGRFTISRDNAKNTVYLQMNSLQPEDTAVYYFNARTKVAYYRHYYWGQGTQVTVSS,low polyreactivity
9,QVQLVESGGGLVQAGGSLRLSCAASGFIFHRNAMGWYRQAPGKERELVAAITRSSTSTYYADSVKGRFTISRDNAKNTVYLQMNSLKPEDTAVYYCNARYPSADDWGQGTQVTVSS,high polyreactivity
10,QVQLVESGGGLVQAGGSLRLSCAASGFIFHRYAMGWYRQAPGKERELVATITASGGSTYYADSVKGRFTISRDNAKNTVYLQMNSLKPEDTAVYYCAAGSFSRGRRTRQYNFDYWGQGTQVTVSS,high polyreactivity
11,QVQLVESGGGLVQAGGSLRLSCAASGFIFIKYAMGWYRQAPGKERELLAASSFRGGRTYYADSVKGRFTISRDNAKNTVYLQMNSLNPEETAVYYCAAETRDYSEGYYWGQGTQVTVSS,high polyreactivity
12,QVQLVESGGGLVQAGGSLRLSCAASGFIFIQNDMGWYRQAPGKEREFVASISKDGGRTYYADSVKGRFTISRDNAKNTVYLQMNSLKPEDTAVYYCNTYPRGNWGNFVEQDYDYWGQGTQVTVSS,low polyreactivity
13,QVQLVESGGGLVQAGGSLRLSCAASGFIFISNAMGWSRQAPGKERELVARISDTDRTHYADSVKGRFTISRDNAKNTVYLQMNSLKPEDTAVYYCAAYDYNAIEYGYWGQGSQVTVSS,low polyreactivity
14,QVQLVESGGGLVQAGGSLRLSCAASGFIFIYYAMGWYRQAPGKERELVAGITSGGSTNYADSVKGRFTISRDNAKNTVYLQMNSLKPEDTAVYYCAAGSSARWYPRYNYWGQGTQVTVSS,high polyreactivity
15,QVQLVESGGGLVQAGGSLRLSCAASGFIFKFYAMGWYRQAHGKERELVAAISKSGGRTYYADSVKGRFTISRDNAKNTVYLQMNSLKPEDTAVYYCNAPSVGAAFDYWGQGTQVTVSS,high polyreactivity
16,QVQLVESGGGLVQAGGSLRLSCAASGFIFKKYVMGWYRQAPGKERELVAGSSRSGGSTYYADSVKGRFTISRDNAKNTVYVQMNSLKPEDTAVYYCAAYIYQSPTRGGGYWGQGTQVSVSS,high polyreactivity
17,QVQLVESGGGLVQAGGSLRLSCAASGFIFKPYAMGWYRQAPGKERELVAAITVNGGTTYYADSVKGRFTISRDNAKNTVYLQMNSLKPEDTAVYYCNRGRPGGPSWYHYDYWGQGTQGTVSS,high polyreactivity
18,QVQLVESGGGLVQAGGSLRLSCAASGFIFKRYAMGWYRQAPGKERELVAAITSSGGRTYYADSVKGRFTISRDNAKNTVYLQMISLKPEDTAVYYCAKGWSTYYTKMNYWGQGTQVTVSS,low polyreactivity
19,QVQLVESGGGLVQAGGSLRLSCAASGFIFKSYAMGWYRQAPGKERELVAAITRGDNTNYADSVKGRFTISRDNAKNTFYLQMNSLKPEDTAVYYCAADRYTVRMDYWGQGTQVTVSS,high polyreactivity
20,QVQLVESGGGLVQAGGSLRLSCAASGFIFKTYAMGWYRQAPGKERELVAAITGTGTSTYYADSVKGRFTISRDNAKNTVYLQMNSLKTEDTAVYYCAAEFGGRSYYPRHEYWGQGTQVTVSS,low polyreactivity
